Source: patent EP4603506A1, “NOVEL GLP-1 RECEPTOR ANTAGONIST, AND PHARMACEUTICAL COMPOSITION FOR PREVENTING OR TREATING CONGENITAL […] OR HYPOGLYCEMIA, COMPRISING SAME” (Hanmi Pharm. Co., Ltd., priority 2022, dated 2024)
Starred links: 1 amine or outer side, 2 acyl side, 3 side chain; linkers in the order of their positions; H or OH if unused. Residues, ends and D or L forms follow the SMILES beside them. Groups on a side chain read outwards from the residue. *: point of attachment. C20 diacid = O=C(O)CCCCCCCCCCCCCCCCCCC(=O)*; C18 diacid = O=C(O)CCCCCCCCCCCCCCCCC(=O)*; γGlu = O=C(O)[C@H](CCC(=O)[*:2])N[*:1]; AEEA = NCCOCCOCC(=O)O

B1: acylated GLP-1R antagonist analog conjugate (SEQ ID NO: 15) (peptide)
peptide: Ac-DVSSYLEEEAVRLFIAWLVK([AEEA-AEEA-γGlu-C18 diacid])GGPSSGAPPPS-NH2
SMILES: CC[C@H](C)[C@H](NC(=O)[C@H](Cc1ccccc1)NC(=O)[C@H](CC(C)C)NC(=O)[C@H](CCCNC(=N)N)NC(=O)[C@@H](NC(=O)[C@H](C)NC(=O)[C@H](CCC(=O)O)NC(=O)[C@H](CCC(=O)O)NC(=O)[C@H](CCC(=O)O)NC(=O)[C@H](CC(C)C)NC(=O)[C@H](Cc1ccc(O)cc1)NC(=O)[C@H](CO)NC(=O)[C@H](CO)NC(=O)[C@@H](NC(=O)[C@H](CC(=O)O)NC(C)=O)C(C)C)C(C)C)C(=O)N[C@@H](C)C(=O)N[C@@H](Cc1c[nH]c2ccccc12)C(=O)N[C@@H](CC(C)C)C(=O)N[C@H](C(=O)N[C@@H](CCCCNC(=O)COCCOCCNC(=O)COCCOCCNC(=O)CC[C@H](NC(=O)CCCCCCCCCCCCCCCCC(=O)O)C(=O)O)C(=O)NCC(=O)NCC(=O)N1CCC[C@H]1C(=O)N[C@@H](CO)C(=O)N[C@@H](CO)C(=O)NCC(=O)N[C@@H](C)C(=O)N1CCC[C@H]1C(=O)N1CCC[C@H]1C(=O)N1CCC[C@H]1C(=O)N[C@@H](CO)C(N)=O)C(C)C
B2: acylated GLP-1R antagonist analog conjugate (SEQ ID NO: 20) (peptide)
peptide: Ac-DVSSYLEEEAVRLFIAWLVKGGPSSGAPPPSK([AEEA-AEEA-γGlu-C20 diacid])-NH2
SMILES: CC[C@H](C)[C@H](NC(=O)[C@H](Cc1ccccc1)NC(=O)[C@H](CC(C)C)NC(=O)[C@H](CCCNC(=N)N)NC(=O)[C@@H](NC(=O)[C@H](C)NC(=O)[C@H](CCC(=O)O)NC(=O)[C@H](CCC(=O)O)NC(=O)[C@H](CCC(=O)O)NC(=O)[C@H](CC(C)C)NC(=O)[C@H](Cc1ccc(O)cc1)NC(=O)[C@H](CO)NC(=O)[C@H](CO)NC(=O)[C@@H](NC(=O)[C@H](CC(=O)O)NC(C)=O)C(C)C)C(C)C)C(=O)N[C@@H](C)C(=O)N[C@@H](Cc1c[nH]c2ccccc12)C(=O)N[C@@H](CC(C)C)C(=O)N[C@H](C(=O)N[C@@H](CCCCN)C(=O)NCC(=O)NCC(=O)N1CCC[C@H]1C(=O)N[C@@H](CO)C(=O)N[C@@H](CO)C(=O)NCC(=O)N[C@@H](C)C(=O)N1CCC[C@H]1C(=O)N1CCC[C@H]1C(=O)N1CCC[C@H]1C(=O)N[C@@H](CO)C(=O)N[C@@H](CCCCNC(=O)COCCOCCNC(=O)COCCOCCNC(=O)CC[C@H](NC(=O)CCCCCCCCCCCCCCCCCCC(=O)O)C(=O)O)C(N)=O)C(C)C
B3: acylated GLP-1R antagonist analog conjugate (SEQ ID NO: 16) (peptide)
peptide: Ac-DVSSYLEEEAARLFIAWLVK([AEEA-AEEA-γGlu-C18 diacid])GGPSSGAPPPS-NH2
SMILES: CC[C@H](C)[C@H](NC(=O)[C@H](Cc1ccccc1)NC(=O)[C@H](CC(C)C)NC(=O)[C@H](CCCNC(=N)N)NC(=O)[C@H](C)NC(=O)[C@H](C)NC(=O)[C@H](CCC(=O)O)NC(=O)[C@H](CCC(=O)O)NC(=O)[C@H](CCC(=O)O)NC(=O)[C@H](CC(C)C)NC(=O)[C@H](Cc1ccc(O)cc1)NC(=O)[C@H](CO)NC(=O)[C@H](CO)NC(=O)[C@@H](NC(=O)[C@H](CC(=O)O)NC(C)=O)C(C)C)C(=O)N[C@@H](C)C(=O)N[C@@H](Cc1c[nH]c2ccccc12)C(=O)N[C@@H](CC(C)C)C(=O)N[C@H](C(=O)N[C@@H](CCCCNC(=O)COCCOCCNC(=O)COCCOCCNC(=O)CC[C@H](NC(=O)CCCCCCCCCCCCCCCCC(=O)O)C(=O)O)C(=O)NCC(=O)NCC(=O)N1CCC[C@H]1C(=O)N[C@@H](CO)C(=O)N[C@@H](CO)C(=O)NCC(=O)N[C@@H](C)C(=O)N1CCC[C@H]1C(=O)N1CCC[C@H]1C(=O)N1CCC[C@H]1C(=O)N[C@@H](CO)C(N)=O)C(C)C
B4: acylated GLP-1R antagonist analog conjugate (SEQ ID NO: 18) (peptide)
peptide: Ac-DVSSYLEEEAVRLFIAWLVKGGPSSGAPPPSK([AEEA-AEEA-γGlu-C18 diacid])-NH2
SMILES: CC[C@H](C)[C@H](NC(=O)[C@H](Cc1ccccc1)NC(=O)[C@H](CC(C)C)NC(=O)[C@H](CCCNC(=N)N)NC(=O)[C@@H](NC(=O)[C@H](C)NC(=O)[C@H](CCC(=O)O)NC(=O)[C@H](CCC(=O)O)NC(=O)[C@H](CCC(=O)O)NC(=O)[C@H](CC(C)C)NC(=O)[C@H](Cc1ccc(O)cc1)NC(=O)[C@H](CO)NC(=O)[C@H](CO)NC(=O)[C@@H](NC(=O)[C@H](CC(=O)O)NC(C)=O)C(C)C)C(C)C)C(=O)N[C@@H](C)C(=O)N[C@@H](Cc1c[nH]c2ccccc12)C(=O)N[C@@H](CC(C)C)C(=O)N[C@H](C(=O)N[C@@H](CCCCN)C(=O)NCC(=O)NCC(=O)N1CCC[C@H]1C(=O)N[C@@H](CO)C(=O)N[C@@H](CO)C(=O)NCC(=O)N[C@@H](C)C(=O)N1CCC[C@H]1C(=O)N1CCC[C@H]1C(=O)N1CCC[C@H]1C(=O)N[C@@H](CO)C(=O)N[C@@H](CCCCNC(=O)COCCOCCNC(=O)COCCOCCNC(=O)CC[C@H](NC(=O)CCCCCCCCCCCCCCCCC(=O)O)C(=O)O)C(N)=O)C(C)C

Target: human GLP-1 receptor (GLP-1R) (human, UniProt P43220 24-463)
Assay: cell-based or functional assay
Conditions: not given

In order of rising “In vitro activity compared with comparative substance (%); IC50 of cAMP inhibition in hGLP-1R CHO cells with 0.1 nM GLP-1” value:
1. B3  13.5%
2. B1  14.3%
3. B2  15.1%
4. B4  19.8%
5. DLSSQMEEEAVRLFIEWLKNGGPSSGAPPPS (N-terminus acetylated; C-terminal amide) [GLP-1R antagonist analog (SEQ ID NO: 5)]  85%
6. Ac-DVSSYLEEQAVREFIAWLVKGGPSSGAPPPS-NH2 [GLP-1R antagonist analog (SEQ ID NO: 9)]  189%
7. Ac-DVSSYLEEEAVRLFIAWLVKGGPSSGAPPPSC-NH2 [GLP-1R antagonist analog (SEQ ID NO: 12)]  189%
8. Ac-TSDVSSYLEEEAVRLFIAWLVKGGPSSGAPPPS-NH2 [GLP-1R antagonist analog (SEQ ID NO: 7)]  196%
9. Ac-DVSSYLEEEAVRLFIAWLVKGGPSSGAPPPS-NH2 [GLP-1R antagonist analog (SEQ ID NO: 8)]  238%
10. DLSSYLEEEAVRLFIEWLKNGGPSSGAPPPS (N-terminus acetylated; C-terminal amide) [GLP-1R antagonist analog (SEQ ID NO: 10)]  250%

Target: human GLP-1R (hGLP-1R) (Homo sapiens, UniProt P43220)
Sequence (P43220 24-463): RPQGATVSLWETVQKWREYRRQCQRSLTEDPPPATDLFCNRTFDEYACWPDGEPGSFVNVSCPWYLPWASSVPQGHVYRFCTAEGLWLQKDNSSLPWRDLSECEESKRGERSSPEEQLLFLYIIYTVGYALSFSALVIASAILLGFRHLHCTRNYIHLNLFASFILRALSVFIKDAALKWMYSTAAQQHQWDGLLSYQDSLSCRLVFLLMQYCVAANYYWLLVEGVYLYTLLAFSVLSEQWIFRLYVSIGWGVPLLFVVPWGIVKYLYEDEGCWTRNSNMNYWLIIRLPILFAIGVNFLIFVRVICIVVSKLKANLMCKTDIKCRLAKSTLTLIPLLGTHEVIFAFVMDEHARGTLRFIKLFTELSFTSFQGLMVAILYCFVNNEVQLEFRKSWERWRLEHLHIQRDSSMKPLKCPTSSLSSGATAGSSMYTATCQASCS
Assay: In vitro cell activity: cAMP inhibition (LANCE Ultra cAMP kit) in CHO cells expressing human GLP-1R, with GLP-1 added
Assay type: cell-based
Conditions: relative activity from IC50 of cAMP inhibition; 0.1 nM GLP-1 added; comparative substance exendin-3 (9-39) amide = 100
Method: The human GLP-1R-expressed CHO cells were cultured in a 384-well plate for 24 hours. Thereafter, the culture was removed, and 10 µL of each serially diluted substance was added to the plate, followed by incubation at room temperature for 30 minutes. Then, 5 µL of Eu-cAMP tracer was added, and then 5 µL of a buffer containing cAMP antibodies was added, followed by incubation at room temperature for 60 minutes. […]

In order of falling “In vitro activity compared with comparative substance (%)” value:
1. CC[C@H](C)[C@H](NC(=O)[C@H](Cc1ccccc1)NC(=O)[C@H](CC(C)C)NC(=O)[C@H](CCCNC(=N)N)NC(=O)[C@@H](NC(=O)[C@H](C)NC(=O)[C@H](CCC(=O)O)NC(=O)[C@H](CCC(=O)O)NC(=O)[C@H](CCC(=O)O)NC(=O)[C@H](CC(C)C)NC(=O)[C@H](Cc1ccc(O)cc1)NC(=O)[C@H](CO)NC(=O)[C@H](CO)NC(=O)[C@@H](NC(=O)[C@H](CC(=O)O)NC(C)=O)C(C)C)C(C)C)C(=O)N[C@@H](C)C(=O)N[C@@H](Cc1c[nH]c2ccccc12)C(=O)N[C@@H](CC(C)C)C(=O)N[C@H](C(=O)N[C@@H](CCCCN)C(=O)NCC(=O)NCC(=O)N1CCC[C@H]1C(=O)N[C@@H](CO)C(=O)N[C@@H](CO)C(=O)NCC(=O)N[C@@H](C)C(=O)N1CCC[C@H]1C(=O)N1CCC[C@H]1C(=O)N1CCC[C@H]1C(=O)N[C@@H](CO)C(N)=O)C(C)C [SEQ ID NO: 8] (Ac-DVSSYLEEEAVRLFIAWLVKGGPSSGAPPPS-NH2)  238.5%
2. CC[C@H](C)[C@H](NC(=O)[C@H](Cc1ccccc1)NC(=O)[C@H](CC(C)C)NC(=O)[C@H](CCCNC(=N)N)NC(=O)[C@@H](NC(=O)[C@H](C)NC(=O)[C@H](CCC(=O)O)NC(=O)[C@H](CCC(=O)O)NC(=O)[C@H](CCC(=O)O)NC(=O)[C@H](CC(C)C)NC(=O)[C@H](Cc1ccc(O)cc1)NC(=O)[C@H](CO)NC(=O)[C@H](CO)NC(=O)[C@@H](NC(=O)[C@H](CC(=O)O)NC(=O)[C@H](CO)NC(=O)[C@@H](NC(C)=O)[C@@H](C)O)C(C)C)C(C)C)C(=O)N[C@@H](C)C(=O)N[C@@H](Cc1c[nH]c2ccccc12)C(=O)N[C@@H](CC(C)C)C(=O)N[C@H](C(=O)N[C@@H](CCCCN)C(=O)NCC(=O)NCC(=O)N1CCC[C@H]1C(=O)N[C@@H](CO)C(=O)N[C@@H](CO)C(=O)NCC(=O)N[C@@H](C)C(=O)N1CCC[C@H]1C(=O)N1CCC[C@H]1C(=O)N1CCC[C@H]1C(=O)N[C@@H](CO)C(N)=O)C(C)C [SEQ ID NO: 7] (Ac-TSDVSSYLEEEAVRLFIAWLVKGGPSSGAPPPS-NH2)  195.5%
3. CC[C@H](C)[C@H](NC(=O)[C@H](Cc1ccccc1)NC(=O)[C@H](CCC(=O)O)NC(=O)[C@H](CCCNC(=N)N)NC(=O)[C@@H](NC(=O)[C@H](C)NC(=O)[C@H](CCC(N)=O)NC(=O)[C@H](CCC(=O)O)NC(=O)[C@H](CCC(=O)O)NC(=O)[C@H](CC(C)C)NC(=O)[C@H](Cc1ccc(O)cc1)NC(=O)[C@H](CO)NC(=O)[C@H](CO)NC(=O)[C@@H](NC(=O)[C@H](CC(=O)O)NC(C)=O)C(C)C)C(C)C)C(=O)N[C@@H](C)C(=O)N[C@@H](Cc1c[nH]c2ccccc12)C(=O)N[C@@H](CC(C)C)C(=O)N[C@H](C(=O)N[C@@H](CCCCN)C(=O)NCC(=O)NCC(=O)N1CCC[C@H]1C(=O)N[C@@H](CO)C(=O)N[C@@H](CO)C(=O)NCC(=O)N[C@@H](C)C(=O)N1CCC[C@H]1C(=O)N1CCC[C@H]1C(=O)N1CCC[C@H]1C(=O)N[C@@H](CO)C(N)=O)C(C)C [SEQ ID NO: 9] (Ac-DVSSYLEEQAVREFIAWLVKGGPSSGAPPPS-NH2)  188.6%
